{
  "source": "the DeepSol protein solubility set",
  "data": [
    {"assay": "soluble on expression in E. coli; label from the status in PepcDB or PDB records", "values": [
      {"sequence": "GPGSMAHLFFTGACAAAAALPISDREEVSPVWSIYDDYCCGASQHAEVDDPQVEGEGVGNCGGTTPPRLPFISGPVSSMTLKGAQLKKEAPIRRGAQGAVYSALDVATSAPAEDEKAKGLFSPEACRGHEGEAQVADGGQRPARRGRRVAVKRIFIQASDFGARDISATVLREVTLHRFVSEKQAACLAAAGAFYPTGSTSDATALAEADQGQTLCNLIDDSARVIHLYRVVEAPHKEMCLVMELAATNLEQVVFPHGARGASRGDGAGGYKRKPGVVSLFGSSASIGVGGGLGLSSASPSTAPDAATAEVGPQASSPSPPPSRMPLVRYVMRRLLRLVCFLHETCCVVHRDLKLSNVLVSKDAGLRLGDFGSARFIPPLRSATKTGVENSPSVPEPPAAPAGQREHLLCTPPSIRTTLHYRPPEALLGDQVCRTAADVWALGVIFAQLLLQKGLFHSESELDLLGAIQKLLGMPTYSAPPSWLAAPSVPGPPRERESAAHVPAPQASLPYKFHTGVVPADGLDLLSRMLHQQPECRVTAREALQHPFLNLEGLSAAATHDDDERGRVLWEERVATVLREQATGHIYGMGGGERRPMLISLADNEDEEDQEDDEVGVAPFCVNLGGCTSY", "soluble on expression in E. coli": "not soluble"},
      {"sequence": "MEEQNANQMLTDILSFMKSGKRAAALEHHHHHH", "soluble on expression in E. coli": "soluble"},
      {"sequence": "MSLANADTYQPSYSTAGFYQLSNTGRTVYNMNPAWRFYKGNIEGAEQPRFNDKDWNIVSLPDGIEYLPTEASGCINYQGEIWYRKHFTPKESWKGKQQFLHFEAIMGKSKIWVNGKLLKEHFGGFLPVIVDVTSSLKYGEDNVITVWADNSDDPSYPPGKPQDALDFAYFGGIYRDCWMIVHNKVFITDPNYENETAGGGLFVSFDKVSEQSAQLKLDAHIRNTSGKSFSGKIIYELYDRDDKRVLSKETGLSVSKDLAKQISCKVTVETPHLWSPDSPYLYKLHIYIKDKAGNTIDGYYRRIGIRSIEFKGKDGFWLNGKPYPYPLMGANRHQDFAVIGNALPNSLHWRDAKKLRDAGMRVIRNAHYPQDPAFMDACDELGLFVIVNTPGWQFWNDQPIFAQRVYSDIRNMVRRDRNHPSVWMWEPILNETWYPADFAKNVVDILNEEYPYPYCYAGCDVTARGHEYFPIHFTHPMNGGGGAFNTENLDPKISYFTREWGDNVDDWNSHNSPSRVNRGWGEVPMLIQAQGYAKNDYQLTSYDGLYRTSRQHMGGCLWHSFDHQRGYHPDPFYGGIMDAFRQPKLSYYMFCSQRPAEPNKELIADEGHHHHHH", "soluble on expression in E. coli": "soluble"},
      {"sequence": "MTLTRKTLFLLTAAFGTHSLQTASADAVVKAEKLHASANRSYKVAGKRYTPKNQVAEFTQTGNASWYGGRFHGRKTSGGERYDMNAFTAAHKTLPIPSYVRVTNTKNGKSVIVRVNDRGPFHGNRIIDVSKAAAQKLGFVNQGTAHVKIEQIVPGQSAPVAENKDIFIDLKSFGTEHEAQAYLNQAAQNFAVSSSGTNLSVEKRRYEYVVKMGPFTSQERAAEAEAQARGMVRAVLTAG", "soluble on expression in E. coli": "not soluble"},
      {"sequence": "MEKENTNGGSVYVTVDGHFKPVHVSMKGTGEKGFLEFMLEDVEKALKETEMPVIGMMYYNVPDMGIVPHLWEGNNDDYLQRLEKAMDGHGIKLHRYLRLSEVVYCL", "soluble on expression in E. coli": "not soluble"},
      {"sequence": "MGSDKIHHHHHHMLDIHWLKTFVTLAEHKHFGKAATALHMTQPNVSLHIKQLEQSTRVKLIDRNPFRLTQAGFRLLESSQKTLMELQICQADLNAINDLSQGTLTIAASDIISRLLLIQPFQLFKAEFPGIDFSLLNTTSSQASELVKNAEADLGFVIAQKESQPLHFTELQQIKWCAIGDNLQQWQQANLSVDTPLAEQPTLILLGHDTRTRELLDPALPSLNLPNYRIMEVGSVDAQIDWAEAGFGVAIVPEFSVYTKANLTTKVTPLPQFPTTSLGYIVRQNQILSKAIKQLLYWVNQEIIRSQR", "soluble on expression in E. coli": "not soluble"},
      {"sequence": "MAEETIFSKIIRREIPSDIVYQDDLVTAFRDISPQAPTHILIIPNILIPTVNDVSAEHEQALGRMITVAAKIAEQEGIAEDGYRLIMNTNRHGGQEVYHIHMHLLGGRPLGPMLAHKGL", "soluble on expression in E. coli": "soluble"},
      {"sequence": "MNKIALFVDVQNIYYTCREAYQRQFNYRKLWQHLSTQGEIVSAVAYAIHRGDDGQLKFQDALRHIGFELKLKPFIQRSDGSAKGDWDVGITIDVLDAAPNVDTVILLSGDGDFAILLEKITQKYGVKAEVYGVPQLTAKALMDATTQFNPIDDVLLL", "soluble on expression in E. coli": "soluble"},
      {"sequence": "MSLNKKVVIDDVAKLAGVSKATISRYLNGKFEYMSEKTKDRIKESIEELNYRPNNIARSLKSNKSKLIGVVIADLTNPFSSIIIKGIGDECKARGYNMVIANSDNDVKQEEEYIKSLLDQRVEGIIVNSTGYNEEFLLSIKERGIPVSMVDRTFCEDKVDSVKSNNYDITVETINYLIDAGFNSLCFFTERLDNIKPRIERERAFIDVCSKRLKKENYNISVVDYSKAGNLEVNIYKFLNNYSGKKAIFAVNGVVLLHTLSAINKLNINVPKDLGICGYDNWGWAALIPPGITTISQPSYEMGSEAAKLVLDRIEGKASLGAVCKTLSAKLEIRGSTIPLNEGHHHHHH", "soluble on expression in E. coli": "not soluble"},
      {"sequence": "MSLNMKVLITASSRGIGFNLAKELLNKGHEVTITSSNIRNIENAYKELRELGTVHYFQADLSSKEDIKRMVKDAWDAMGRIEALIWNAPNVKCEPCMVHEARYRDWLEAALLHLVSPGYITTLLIQAWLEKKIKGVLIYLSSASVLEPMPPLLLADTARAGLVQLTKGITRAYGGKGIRAYVVLLGSFDTPGARENLAKIAEERGMSLEEIWRKEVIERTPLKRTGKWSELGALIDFLLSENAEYMMGSTILFDGAMTRGVNEGHHHHHH", "soluble on expression in E. coli": "not soluble"},
      {"sequence": "MAHKQSTNNETSNGSTTEIIDETDARAQLESGRTTPTLLLRLEHPRNERRVAFHAGIIDNEHLNRKKSKCCCIYKKPLAFGESSSEDDEDCEHCFGHPEKRQRNAKHNHNHGDKPCTEASHPEGPSTSTQAAHISQPPAEPVESKTDPKPPTPGVDFEQTGSSMGHHHHHHSH", "soluble on expression in E. coli": "soluble"},
      {"sequence": "MNGAQWVVHALRAQGVKTVFGYPGGAIMPVYDALYDGGVEHLLCRHEQGAAMAAIGYARSTGKTGVCIATSGPGATNLITGLADALLDSVPVVAITGQVSAPFIGTDAFQEVDVLGLSLACTKHSFLVQSLEELPRIMAEAFEVANAGRPGPVLVDIPKDIQLASGELEPWFTTVANEATFPQADVEQARQMLEQAKKPMLYVGGGVGMAQAVPALRKFIAVTQMPVTCTLKGLGAVEADYPYYLGMLGMHGTKAANFAVQECDLLIAVGARFDDRVTGKLNTFAPNASVIHMDIDPAEMNKLRQAHVALQGDLNSLLPALQQPLKIDAWRQSCAELRAEHAWRYDHPGETIYAPLLLKQLSERKPADSVVTTDVGQHQMWSAQHMTYTRPENFITSSGLGTMGFGLPAAVGAQVARPNDTVICISGDGSFMMNVQELGTVKRKQLPLKIVLLDNQRLGMVRQWQQLFFQERYSETTLTDNPDFLMLASAFGIPGQHITRKDQVEAALDTMLASEGPYLLHVSIDELENVWPLVPPGASNSEMLEKLS", "soluble on expression in E. coli": "not soluble"},
      {"sequence": "MGSDKIHHHHHHMKLPPLQIGDLKADIPIIQGGMGVGISRSSLASAVANCGGVGTISGVQIGFDEPDFETNTFNANIRALNKHIKKAKQESKRGIIAVNFMVAMNDYDKYVKSAVDAGADLIVSGAGLPTALPKIVEGSKVKIAPIVSSPKAASVICKMWDKHHGRIPDLIVVEGPEAGGHLGFKAEQVKGSHEELSDILTGVLTAIKPFEEKHGVKIPVVCGGGVFYGKDIAKYIKLGASGVQMATRFIATEECDANLNYKNVYVNCKEDDIKIVKSPVGMPGRAISNKFVQSNDKNITITKCYNCLKPCNPKDTPYCISKALINAVNGNVDEALLFTGAKSYKIDKIVKVKELINELISDAECEF", "soluble on expression in E. coli": "not soluble"},
      {"sequence": "MGRSNKHDVTSTTPSLAIVQANPHPHKDVVPTEAPIVSSYNDHIRPLLDTVDKLRNLNVMQEGIQLPTIVVVGDQSSGKSSVLESLAGISLPRGQGICTRVPLVMRLQRSRSPEPEIWLEYGDKIVPTDEEHIAQTICAATDVIAGSGKGVSDTPLTLHVKKAGVPDITMVDLPGITRVPVNGQPENIYEQISRMVMKYIEPQESIILNVLSATVDFTTCESIRMSKQVDKTGERTLAVVTKADMAPEGLLQKVTADDVSIGLGYVCVRNRIGEETYEEARMQEELLFRTHPMLSMINDEIVGIPVLAQKLTQIQGMMISRCLPEIERKINVKMEISVLEFNKLPIVMASTGEALMSLMDIIGSAKESLLRILVHGDFSEYPNDQKMHCTARLAEMLNRFSDNLQAQPQAVTEEFLMDEIKVLEERKCIGLPNFIPRSSFLAILSQHVDGIQDKPVEFIKEIWDYIEVVLSSVITTYSDNFPQIQSSIKRAGRNLMSRTKERSKTTSQQNFINSVLHDENKPENFALPGFGDVKISHLRKYHAHLLQQAFDMKMRITSYWTIVLRRVVDNLALYLQFSVKNLVNSQFQKEIVAEMVDPRAGGGIDRMLEESPSVASKREKLKNSLKLLKESKDVVAAIVDQNSVYADR", "soluble on expression in E. coli": "soluble"},
      {"sequence": "MSLSNAEITHREGVKMLVVRPISMADYEALHTCAVESGHGFTSLPVDQELLTNRITHSEYSFSKPNVTMPGDEGYLMVGVDTETGQVAGTTGIEASIGWDVPFYSYHISTIVHSSPKLGVNNVVKLLTFGNNYTGCSEICTLFLRPQYRQGLNGRLMSKCRFLMMAEHSHRFSKTIFAEMRGVSDADGNSPFWKWLQEHFFSIDFTLADYLTGIGKKGFIADLMPKLPIYVNLLSKEAQAVIGQVHENTRPALVLLEKEGFTCRNYVDIFDAGPTVECELNNIESVRHSVRAIVEVAEHSSSQNFIMCNTSFENFRATAAKAAYSQEDNAVIISPKVAAALEVSTGDYLRILAQEGHHHHHH", "soluble on expression in E. coli": "soluble"},
      {"sequence": "MSLEPDELFDIEMRLLLHGVRQVYGHDFTDYSEASIKRRITQWFATSGYGTLSEAQAAILRNREAFDSLLRGITVNVSEMFRDPAFFRALREEIVPHLKTYPFVKIWHAGCSSGEEAYSLAILLEEEGMKGRFRMYATDINNEVLQNAREGIFPLKEMQKYTRNYQAAGGKGAFSDYYLARYEHAIMIQSLRDQIVFASHNLAVDADFGEMHLILCRNVLIYFKPTLKERVLRLFDTCLIPGGFLCLGLKESLDGRRIASRYAETVERMRIYRKSYGQEQSEGHHHHHH", "soluble on expression in E. coli": "not soluble"},
      {"sequence": "VTVQDGNFSFSLESVKKLKDLQEPQEPRVGKLRNFAPIPGEPVVPILCSNPNFPEELKPLCKEPNAQEILQRLEEIAEDPGTCEICAYAACTGC", "soluble on expression in E. coli": "soluble"},
      {"sequence": "MSDVSRILKEARSQSRLTTLDYAEQIFDDFMELHGDRHFADDGAIVGGIGLLDGQAVTVIGVQKGKNLQDNLNRNFGQPNPEGYRKALRLMKQAEKFKRPVVTFINTAGAYPGIGAEERGQGEAIARNLLEMSDLKVPIIAIIIGEGGSGGALALAVADKVWMLEHTMYAVLSPEGFASILWKDGSRSIEAAELMKITAGELLKMEVVDKVIPEHGYFSSEIIQMLKTNLIEELKNLDQYPLNDLLEKRYQRFRKY", "soluble on expression in E. coli": "not soluble"},
      {"sequence": "MSAIKVFILSDSIGETAHNVALAAAAQFSDYDIRYQRFPFVRTDSLLQTVLSQALKEHAAIFHTFVDRRLSQIVNQFCEAHELPYYDVITPALDTFSQITHVQPSNHPGTVHALNTNYFDRINAIEFAVTYDDGKNPSGFLEADVVLLGVSRTSKTPLSLYLANRNLKVANLPLVPQAQIPDEIWKVDPKKIFGLTNDPEKLNDIRRQRMVQYGLNPDTMYSNTDKIKAELEYADKIFKKIGCLVINVANKSIEETATLITESLNTDDTNNGLEHHHHHH", "soluble on expression in E. coli": "soluble"},
      {"sequence": "MGSDKIHHHHHHMLFSVVDDRSGVAYQEYHCVYGEDAETALRFLFNSMAPKADPSFPFQGRPKLIYLDNGPVAKRRVFQSVMRALGIEWQTHIPASKDGTRTTARSKGKVERPFRTVKEAHETLYHFHKPETEAQANEWLLRYLVRTYNQQTHRAEPLSRIEDWITHVPTEGIREMCSWDQFCRFAREPERRKVGPDARITTDGTAYELEPEMAGDYVVLLWGLFDDELHAEFDGERFGPHYPVSGPIPQHRYRAFKRSKADERSARIRSLADQLGLPIAALSGEDVRLEPGSADSTLPIQPFVFEPQESRIAAKLAIAEELAMPLAKLSMDDRAFIDQVLSETLATD", "soluble on expression in E. coli": "not soluble"}
    ]}
  ]
}
